In article PMC3635657 (Biochemical Journal, 2013):

B1: TorD^His (hexahistidine-tagged TorD) (natural protein, E. coli, UniProt P36662 1-199, looked up)
chain: MTTLTAQQIACVYAWLAQLFSRELDDEQLTQIASAQMAEWFSLLKSEPPLTAAVNELENRIATLTVRDDARLELAADFCGLFLMTDKQAALPYASAYKQDEQEIKRLLVEAGMETSGNFNEPADHLAIYLELLSHLHFSLGEGTVPARRIDSLRQKTLTALWQWLPEFVARCRQYDSFGFYAALSQLLLVLVECDHQNR
B2: TorAΔSP (TorA Δ2–39, lacking its entire Tat signal peptide) (domain or fragment, E. coli, UniProt P33225 40-848, looked up)
chain: AQAATDAVISKEGILTGSHWGAIRATVKDGRFVAAKPFELDKYPSKMIAGLPDHVHNAARIRYPMVRVDWLRKRHLSDTSQRGDNRFVRVSWDEALDMFYEELERVQKTHGPSALLTASGWQSTGMFHNASGMLAKAIALHGNSVGTGGDYSTGAAQVILPRVVGSMEVYEQQTSWPLVLQNSKTIVLWGSDLLKNQQANWWCPDHDVYEYYAQLKAKVAAGEIEVISIDPVVTSTHEYLGREHVKHIAVNPQTDVPLQLALAHTLYSENLYDKNFLANYCVGFEQFLPYLLGEKDGQPKDAAWAEKLTGIDAETIRGLARQMAANRTQIIAGWCVQRMQHGEQWAWMIVVLAAMLGQIGLPGGGFGFGWHYNGAGTPGRKGVILSGFSGSTSIPPVHDNSDYKGYSSTIPIARFIDAILEPGKVINWNGKSVKLPPLKMCIFAGTNPFHRHQQINRIIEGLRKLETVIAIDNQWTSTCRFADIVLPATTQFERNDLDQYGNHSNRGIIAMKQVVPPQFEARNDFDIFRELCRRFNREEAFTEGLDEMGWLKRIWQEGVQQGKGRGVHLPAFDDFWNNKEYVEFDHPQMFVRHQAFREDPDLEPLGTPSGLIEIYSKTIADMNYDDCQGHPMWFEKIERSHGGPGSQKYPLHLQSVHPDFRLHSQLCESETLRQQYTVAGKEPVFINPQDASARGIRNGDVVRVFNARGQVLAGAVVSDRYAPGVARIHEGAWYDPDKGGEPGALCKYGNPNVLTIDIGTSQLAQATSAHTTLVEIEKYNGTVEQVTAFNGPVEMVAQCEYVPASQVKS
B3: TorAΔCT (TorA Δ676–848, lacking its entire C-terminal Domain IV) (domain or fragment, E. coli, UniProt P33225 1-675, looked up)
chain: MNNNDLFQASRRRFLAQLGGLTVAGMLGPSLLTPRRATAAQAATDAVISKEGILTGSHWGAIRATVKDGRFVAAKPFELDKYPSKMIAGLPDHVHNAARIRYPMVRVDWLRKRHLSDTSQRGDNRFVRVSWDEALDMFYEELERVQKTHGPSALLTASGWQSTGMFHNASGMLAKAIALHGNSVGTGGDYSTGAAQVILPRVVGSMEVYEQQTSWPLVLQNSKTIVLWGSDLLKNQQANWWCPDHDVYEYYAQLKAKVAAGEIEVISIDPVVTSTHEYLGREHVKHIAVNPQTDVPLQLALAHTLYSENLYDKNFLANYCVGFEQFLPYLLGEKDGQPKDAAWAEKLTGIDAETIRGLARQMAANRTQIIAGWCVQRMQHGEQWAWMIVVLAAMLGQIGLPGGGFGFGWHYNGAGTPGRKGVILSGFSGSTSIPPVHDNSDYKGYSSTIPIARFIDAILEPGKVINWNGKSVKLPPLKMCIFAGTNPFHRHQQINRIIEGLRKLETVIAIDNQWTSTCRFADIVLPATTQFERNDLDQYGNHSNRGIIAMKQVVPPQFEARNDFDIFRELCRRFNREEAFTEGLDEMGWLKRIWQEGVQQGKGRGVHLPAFDDFWNNKEYVEFDHPQMFVRHQAFREDPDLEPLGTPSGLIEIYSKTIADMNYDDCQGHPMWFEK

Columns and labels:
[1] = biological target: TorA signal peptide signal peptide (Escherichia coli) (UniProt P33225); conditions: cited from earlier work
[2] = biological target: TorD^His (hexahistidine-tagged TorD) (E. coli) (UniProt P36662); assay: SEC-MALS
[3] = biological target: B2; assay: pull-down
[4] = biological target: B1; assay: SEC-MALS

For TorD (from UniProt P36662), which Kd [1] is on record?
Its Kd is 59 nM.

Which stoichiometry N [2] does the source give for “TorA, full-length precursor (trimethylamine N-oxide reductase), cofactor-free (from UniProt P33225 40-848) (natural protein)” here?
The stoichiometry N was 1.

Does B1 bind [3]?
Result: binds

For B2, which “stoichiometry N” value [4] is on record?
Its value is 1.

For B3, which “stoichiometry N” value [4] is on record?
The value was 1.
